The term Kd denotes the constant that tells how readily two partners part at equilibrium. In general, kon refers to the second-order rate constant of association. A high value points to fast association. By koff is commonly meant the first-order rate constant of dissociation. Read a high koff as fast dissociation. Broadly, the stoichiometry N is the number of molecules, sites or subunits per partner or assembly.

The text below walks through data of publication PMC3654831 (Cell reports, 2012).

B1: Sgt2 N-terminal homodimerization domain (Sgt2-N), wild type (domain or fragment, S. cerevisiae)
chain: SASKEEIAALIVNYFSSIVEKKEISEDGADSLNVAMDCISEAFGFEREAVSGILGKSEFKGQHLADILNSA

Series [1] concerns the target T1, polyhistidine-tagged Get5-UBL-C (S. cerevisiae).
T1 sequence (Q12285 whole entry, looked up): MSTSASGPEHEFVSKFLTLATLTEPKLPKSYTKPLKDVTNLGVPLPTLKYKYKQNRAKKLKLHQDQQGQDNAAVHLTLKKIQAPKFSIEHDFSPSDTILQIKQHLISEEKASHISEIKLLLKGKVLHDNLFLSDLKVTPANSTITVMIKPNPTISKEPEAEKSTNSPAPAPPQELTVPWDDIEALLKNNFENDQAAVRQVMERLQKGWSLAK
As to the kind of experiment: SPR.

Series [2] addresses T2, polyhistidine-tagged Get5-UBL, wild type (S. cerevisiae, UniProt Q12285 74-151).
T2 sequence: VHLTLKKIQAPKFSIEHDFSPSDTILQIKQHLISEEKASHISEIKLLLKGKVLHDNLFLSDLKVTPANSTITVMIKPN
Put plainly: SPR. (SPR reads the build-up and loss of mass on a sensor chip optically.)

For series [3], the target named is T3, Get5 ubiquitin-like domain (Get5-UBL), wild type (S. cerevisiae, UniProt Q12285 74-151).
T3 sequence: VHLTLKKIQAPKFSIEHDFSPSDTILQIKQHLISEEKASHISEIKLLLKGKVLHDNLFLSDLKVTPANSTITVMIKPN
Put plainly: NMR exchange spectroscopy.

The series “solution NMR structure” deals with the molecule itself. As to the kind of experiment: solution NMR structure.
In series [4] the target is T3, Get5 ubiquitin-like domain (Get5-UBL), …. Put plainly: NMR exchange spectroscopy. The source holds these as a separate data set.
The target is the same in series [5]. Put plainly: ITC.
Series [6] concerns the target B1. Put plainly: ITC. For orientation: In ITC the heat of successive injections is recorded.

Where “and” joins values, the source holds several entries; their conditions need not be identical. Equal values may be shown once.

In the case of B1, the figures for the Kd in series [1] and in series [2] were 0.749 µM and 3.78 µM, respectively. For the same molecule, the on-rate constant (kon) is 1.06e+07 M⁻¹ s⁻¹ in series [1] and around 2e+08 M⁻¹ s⁻¹ in series [4]. For the same molecule, the koff in series [3] is 7.5 s⁻¹ and 5.7 s⁻¹. Also, in the series “solution NMR structure”, the “stoichiometry N” value is 2.

B2: Sgt2-N V35A (domain or fragment, S. cerevisiae)
chain: SASKEEIAALIVNYFSSIVEKKEISEDGADSLNAAMDCISEAFGFEREAVSGILGKSEFKGQHLADILNSA
Regarding B2, in series [5], the “fold lower affinity than wild type” value was above 100 fold.

B3: Sgt2-N C39V (domain or fragment, S. cerevisiae)
chain: SASKEEIAALIVNYFSSIVEKKEISEDGADSLNVAMDVISEAFGFEREAVSGILGKSEFKGQHLADILNSA
Consider B3, for which the “fold lower affinity than wild type” value in series [5] is 100 fold.

B4: Sgt2-N D31A (domain or fragment, S. cerevisiae)
chain: SASKEEIAALIVNYFSSIVEKKEISEDGAASLNVAMDCISEAFGFEREAVSGILGKSEFKGQHLADILNSA
For the molecule B4, in series [2], the binding result is “binds”.

B5: Sgt2-N D28A (domain or fragment, S. cerevisiae)
chain: SASKEEIAALIVNYFSSIVEKKEISEAGADSLNVAMDCISEAFGFEREAVSGILGKSEFKGQHLADILNSA
B5: in series [2], the binding result is “binds”.

B6: Sgt2-N C39S (domain or fragment, S. cerevisiae)
chain: SASKEEIAALIVNYFSSIVEKKEISEDGADSLNVAMDSISEAFGFEREAVSGILGKSEFKGQHLADILNSA
With B6, in series [5], the “fold lower affinity than wild type” value is around 700 fold.

B7: Get5-UBL L120A (domain or fragment, S. cerevisiae)
chain: VHLTLKKIQAPKFSIEHDFSPSDTILQIKQHLISEEKASHISEIKLALKGKVLHDNLFLSDLKVTPANSTITVMIKPN
Take B7: the “fold lower affinity than wild type” value in series [6] worked out at 1000 fold.
